US20260209317A1 (US Dept. of Health and Human Services, published 2026)
Like-named read-outs stand apart in the source and are kept apart here.

Columns and labels:
[1] = target: T1, SARS-CoV-2 B.1.351 spike protein (on pseudotyped lentivirus) (SARS-CoV-2); experiment: cell-based or functional assay
[2] = target: T2, SARS-CoV-2 Omicron BA.4/BA.5 spike protein (on pseudotyped lentivirus) (SARS-CoV-2, UniProt P0DTC2 14-1273); experiment: cell-based or functional assay
[3] = target: T3, SARS-CoV-2 P.1 spike protein (on pseudotyped lentivirus) (SARS-CoV-2); experiment: cell-based or functional assay
[4] = target: T4, SARS-CoV-2 Omicron BQ.1.1 spike protein (on pseudotyped lentivirus) (SARS-CoV-2, UniProt P0DTC2 14-1273); experiment: cell-based or functional assay
[5] = target: T5, SARS-CoV-2 Omicron BA.2 spike protein (on pseudotyped lentivirus) (SARS-CoV-2); experiment: cell-based or functional assay
[6] = target: T6, SARS-CoV-2 Omicron BA.2.75.2 spike protein (on pseudotyped lentivirus) (SARS-CoV-2); experiment: cell-based or functional assay
[7] = target: T7, SARS-CoV-2 B.1.1.7 spike protein (on pseudotyped lentivirus) (SARS-CoV-2); experiment: cell-based or functional assay
[8] = target: T8, SARS-CoV-2 D614G spike protein (on pseudotyped lentivirus) (SARS-CoV-2, UniProt P0DTC2 14-1273); experiment: cell-based or functional assay
[9] = target: T9, SARS-CoV-2 Omicron XBB spike protein (on pseudotyped lentivirus) (SARS-CoV-2, UniProt P0DTC2 14-1273); experiment: cell-based or functional assay
[10] = target: T10, SARS-CoV-2 B.1.617.2 spike protein (on pseudotyped lentivirus) (SARS-CoV-2); experiment: cell-based or functional assay
[11] = target: T11, SARS-CoV-2 Omicron BA.2.75 spike protein (on pseudotyped lentivirus) (SARS-CoV-2, UniProt P0DTC2 14-1273); experiment: cell-based or functional assay
[12] = target: T12, SARS-CoV-2 Omicron BA.4.6 spike protein (on pseudotyped lentivirus) (SARS-CoV-2); experiment: cell-based or functional assay
[13] = target: T13, SARS-CoV-2 Omicron BJ.1 spike protein (on pseudotyped lentivirus) (SARS-CoV-2, UniProt P0DTC2 14-1273); experiment: cell-based or functional assay
[14] = target: T1, SARS-CoV-2 B.1.351 spike protein (on …); experiment: cell-based or functional assay; remark: listed apart in the source
[15] = target: T2, SARS-CoV-2 Omicron BA.4/BA.5 spike …; experiment: cell-based or functional assay; remark: listed apart in the source
[16] = target: T3, SARS-CoV-2 P.1 spike protein (on …); experiment: cell-based or functional assay; remark: listed apart in the source
[17] = target: T4, SARS-CoV-2 Omicron BQ.1.1 spike protein …; experiment: cell-based or functional assay; remark: listed apart in the source
[18] = target: T5, SARS-CoV-2 Omicron BA.2 spike protein …; experiment: cell-based or functional assay; remark: listed apart in the source
[19] = target: T6, SARS-CoV-2 Omicron BA.2.75.2 spike …; experiment: cell-based or functional assay; remark: listed apart in the source
[20] = target: T7, SARS-CoV-2 B.1.1.7 spike protein (on …); experiment: cell-based or functional assay; remark: listed apart in the source
[21] = target: T8, SARS-CoV-2 D614G spike protein (on …); experiment: cell-based or functional assay; remark: listed apart in the source
[22] = target: T9, SARS-CoV-2 Omicron XBB spike protein …; experiment: cell-based or functional assay; remark: listed apart in the source
[23] = target: T10, SARS-CoV-2 B.1.617.2 spike protein (on …); experiment: cell-based or functional assay; remark: listed apart in the source
[24] = target: T11, SARS-CoV-2 Omicron BA.2.75 spike …; experiment: cell-based or functional assay; remark: listed apart in the source
[25] = target: T12, SARS-CoV-2 Omicron BA.4.6 spike protein …; experiment: cell-based or functional assay; remark: listed apart in the source
[26] = target: T13, SARS-CoV-2 Omicron BJ.1 spike protein …; experiment: cell-based or functional assay; remark: listed apart in the source
[27] = target: SARS-CoV-2 omicron-BA.1 RBD protein (SARS-CoV-2, UniProt P0DTC2 319-541)

B1: B2-269.1 (antibody, V domains shown)
VH: EVQLVESGGGLVQPGGSLRLSCAASGITVSSNYMSWVRQPPGKGLDWVSLIFSGGSTYYADSVKGRFTISRDNSKNTLYLQMNSLRAEDTAVYYCARVGVAVAGTDYDIWGQGTMVTVSS
VL: DIQMTQSPSSLSASVGDRVTITCQASQDINKYLNWYQQKPGKAPKLLIYDASNLETGVPSRFSGSGSGTDFTFTISSLQPEDIATYYCLHYENLPLSFGGGTKVEIK
B1 was tested, and the “neutralization IC50” value [1] was less than 0.1 µg/mL, the “neutralization IC50” value [2] was less than 0.1 µg/mL and the “neutralization IC50” value [3] was less than 0.1 µg/mL. The “neutralization IC50” value [4] was less than 0.1 µg/mL, the “neutralization IC50” value [5] was less than 0.1 µg/mL and the “neutralization IC50” value [6] was less than 1.1 µg/mL. The “neutralization IC50” value [7] was less than 0.1 µg/mL, the “neutralization IC50” value [8] was less than 0.1 µg/mL and the “neutralization IC50” value [9] was less than 1.1 µg/mL. For the same binder, the “neutralization IC50” value [10] was less than 0.1 µg/mL, the “neutralization IC50” value [11] was less than 1.1 µg/mL and the “neutralization IC50” value [12] was less than 0.1 µg/mL. The “neutralization IC50” value [13] was less than 0.1 µg/mL, the “neutralization IC50” value [14] was 0.007 µg/mL and the “neutralization IC80” value [14] was 0.022 µg/mL. For the same binder, the “neutralization IC50” value [15] was 0.013 µg/mL, the “neutralization IC80” value [15] was 0.036 µg/mL and the “neutralization IC50” value [16] was 0.01 µg/mL. For the same binder, the “neutralization IC80” value [16] was 0.025 µg/mL, the “neutralization IC50” value [17] was 0.126 µg/mL and the “neutralization IC80” value [17] was 0.576 µg/mL. For the same binder, the “neutralization IC50” value [18] was 0.01 µg/mL, the “neutralization IC80” value [18] was 0.032 µg/mL and the “neutralization IC50” value [19] was 0.709 µg/mL. The “neutralization IC80” value [19] was 2.5 µg/mL, the “neutralization IC50” value [20] was 0.02 µg/mL and the “neutralization IC80” value [20] was 0.034 µg/mL. For the same binder, the “neutralization IC50” value [21] was 0.017 µg/mL, the “neutralization IC80” value [21] was 0.039 µg/mL and the “neutralization IC50” value [22] was 0.179 µg/mL. The “neutralization IC80” value [22] was 3.56 µg/mL, the “neutralization IC50” value [23] was 0.028 µg/mL and the “neutralization IC80” value [23] was 0.054 µg/mL. For the same binder, the “neutralization IC50” value [24] was 1.14 µg/mL, the “neutralization IC80” value [24] was 3.54 µg/mL and the “neutralization IC50” value [25] was 0.011 µg/mL. For the same binder, the “neutralization IC80” value [25] was 0.031 µg/mL, the “neutralization IC50” value [26] was 0.001 µg/mL and the “neutralization IC80” value [26] was 0.008 µg/mL. The “EC50 (read off the curve)” value [27] was roughly 0.04 µg/mL.
